The test deals with T1, human epidermal growth factor receptor 3 (HER3) (human, UniProt P21860 20-1342).
T1 construct: whole, on cells; also called ErbB3; HER3 protein
Nature of the test: flow cytometry on HCC1569 cells, PE-coupled anti-human secondary antibody; one-site specific binding fit (GraphPad Prism). As for the experimental part: A human breast cancer cell line HCC1569 (CRL-2330) from ATCC was cultured in an RPMI1640 medium (purchased from Invitrogen Corp., containing 10% […] (manufactured by Invitrogen Corp.) and 2 mM L-glutamine (manufactured by Invitrogen Corp.)). The cells were dissociated from the culture plate using ACCUTASE® SOLUTION (Millipore Corp., SCR005) or EDTA (5 mM, phosphate buffered saline (PBS, 137 mM sodium chloride, 2.7 mM potassium chloride, 1.47 mM potassium dihydrogen phosphate, and 10.5 mM disodium hydrogen phosphate)), and the number of living cells was measured by trypan blue treatment. The same numbers of cells suspended in a fluorescence-activated cell sorting (FACS) buffer (PBS containing 3% FBS and 0.004% sodium azide) were inoculated to 96-well U-bottom plates, and the cells were precipitated by centrifugation and suspended in 100 uL of an ice-cooled antibody or antibody-drug conjugate dilution or FACS buffer.
The cells of each group were reacted with a primary antibody dilution for 45 minutes on ice and then washed with a FACS buffer. […]
FIG. 3 and Table 1 show the mean fluorescence intensity of HCC1569 treated with serial dilutions of U1-59 or each antibody-drug conjugate. The equilibrium binding affinity KD and the maximum binding strength Bmax were calculated using GraphPad Prism software.

B1: Antibody-drug conjugate (3) (antibody, human IgG1, kappa, V domains shown)
VH: QVQLQQWGAGLLKPSETLSLTCAVYGGSFSGYYWSWIRQPPGKGLEWIGEINHSGSTNYNPSLKSRVTISVETSKNQFSLKLSSVTAADTAVYYCARDKWTWYFDLWGRGTLVTVSS
VL: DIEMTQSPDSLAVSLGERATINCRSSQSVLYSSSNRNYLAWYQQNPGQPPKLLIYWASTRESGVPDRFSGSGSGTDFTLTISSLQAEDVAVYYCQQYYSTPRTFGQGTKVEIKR
modifications: may carry one drug-linker molecule (L1 species of Common procedure F); position not given; drug-linker -(Succinimid-3-yl-N)-CH2CH2CH2CH2CH2-C(=O)-GGFG-NH-CH2CH2CH2-C(=O)-(NH-DX) (exatecan) on cysteines by thioether bond at the reduced disulfide bonds of the hinge part; positions not given; average 4.9 drug molecules per antibody (Common procedure E)
notes: also called ADC (3)
Take B1: the Bmax turned out to be 29000.

B2: Antibody-drug conjugate (13) (antibody, human IgG1, kappa, V domains shown)
VH: QVQLQQWGAGLLKPSETLSLTCAVYGGSFSGYYWSWIRQPPGKGLEWIGEINHSGSTNYNPSLKSRVTISVETSKNQFSLKLSSVTAADTAVYYCARDKWTWYFDLWGRGTLVTVSS
VL: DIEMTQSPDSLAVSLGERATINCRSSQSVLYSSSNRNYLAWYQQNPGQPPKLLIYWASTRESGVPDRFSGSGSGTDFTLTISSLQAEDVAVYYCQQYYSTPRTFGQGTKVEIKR
modifications: may carry one drug-linker molecule (L1 species of Common procedure F); position not given; drug-linker -(Succinimid-3-yl-N)-CH2CH2CH2CH2CH2-C(=O)-GGFG-NH-CH2-O-CH2-C(=O)-(NH-DX) (exatecan) on cysteines by thioether bond at the reduced disulfide bonds of the hinge part; positions not given; average 6.2 (Common procedure E) or 7.0 (Common procedure F) drug molecules per antibody
notes: also called ADC (13)
With B2, the dissociation constant Kd was 2.73 nM. That is a single-digit nanomolar value.

Values taken from patent US20190151328A1 (published 2019).
